Paper doi:10.1101/2022.04.29.490036

Molecular target: S. lophii 70 S ribosome (Spraguea lophii (endogenous in spores))
Assay: cryo-EM structure

percent of particles in the monomeric class: 1.6%
stoichiometry N: 2
Substance: S. lophii 70 S ribosome (complex)
